Experimental data: the Immune Epitope Database (IEDB)
Blank lines part the entries; values can stand above or below the sequence they belong to.

What was measured:
HLA-A*02:17 = test: IEDB peptide-MHC binding, purified MHC/competitive/radioactivity; filed as Kd, often an IC50 or EC50 that approximates it; ≥ and ≤ were set here for values at or beyond the usual limits of such assays
HLA-A*02:06 = test: as above
HLA-A*02:01 [1] = test: IEDB peptide-MHC binding, purified MHC/competitive/fluorescence; ≥ and ≤ were set here for values at or beyond the usual limits of such assays; details: source organism: Sudan ebolavirus
HLA-A*24:02 = test: as above; details: source organism: Sudan ebolavirus
HLA-A*11:01 [2] = test: as above
HLA-A*02:03 = test: IEDB peptide-MHC binding, purified MHC/competitive/radioactivity; filed as Kd, often an IC50 or EC50 that approximates it; ≥ and ≤ were set here for values at or beyond the usual limits of such assays
HLA-A*02:01 [3] = test: as above
HLA-B*57:01 = test: IEDB peptide-MHC binding, purified MHC/competitive/fluorescence; filed as Kd, often an IC50 or EC50 that approximates it; ≥ and ≤ were set here for values at or beyond the usual limits of such assays
HLA-A*26:01 = test: as above
HLA-A*69:01 = test: as above
HLA-B*27:03 = test: as above
HLA-B*51:01 = test: as above
HLA-B*39:01 = test: as above
HLA-B*18:01 = test: as above
HLA-B*15:01 = test: as above; details: source organism: Homo sapiens
HLA-B*15:17 = test: as above
HLA-B*46:01 = test: as above
HLA-A*02:01 [4] = test: IEDB peptide-MHC binding, purified MHC/direct/fluorescence; filed as Kd, often an IC50 or EC50 that approximates it; ≥ and ≤ were set here for values at or beyond the usual limits of such assays; details: source organism: Tetraodon nigroviridis
HLA-A*68:02 = test: IEDB peptide-MHC binding, purified MHC/competitive/radioactivity; filed as Kd, often an IC50 or EC50 that approximates it; ≥ and ≤ were set here for values at or beyond the usual limits of such assays
HLA-B*15:09 = test: IEDB peptide-MHC binding, purified MHC/direct/fluorescence; filed as Kd, often an IC50 or EC50 that approximates it; ≥ and ≤ were set here for values at or beyond the usual limits of such assays; details: source organism: Burkholderia mallei ATCC 23344
HLA-B*08:01 [5] = test: IEDB peptide-MHC binding, purified MHC/competitive/radioactivity; filed as Kd, often an IC50 or EC50 that approximates it; ≥ and ≤ were set here for values at or beyond the usual limits of such assays
HLA-A*31:01 = test: IEDB peptide-MHC binding, purified MHC/competitive/fluorescence; filed as Kd, often an IC50 or EC50 that approximates it; ≥ and ≤ were set here for values at or beyond the usual limits of such assays
HLA-A*03:01 [6] = test: IEDB peptide-MHC binding, purified MHC/direct/fluorescence; filed as Kd, often an IC50 or EC50 that approximates it; ≥ and ≤ were set here for values at or beyond the usual limits of such assays
HLA-A*11:01 [7] = test: as above
HLA-B*08:01 [8] = test: as above; details: source organism: Listeria monocytogenes serotype 4b str. H7858
HLA-B*08:02 = test: as above
HLA-A*03:01 [9] = test: IEDB peptide-MHC binding, purified MHC/competitive/fluorescence; filed as Kd, often an IC50 or EC50 that approximates it; ≥ and ≤ were set here for values at or beyond the usual limits of such assays
HLA-A*02:01 [10] = test: as above; details: source organism: Escherichia coli 536
HLA-B*15:42 = test: as above
HLA-B*83:01 = test: as above; details: source organism: human gammaherpesvirus 4
HLA-B*45:06 = test: as above
HLA-A*02:12 = test: IEDB peptide-MHC binding, purified MHC/direct/fluorescence; filed as Kd, often an IC50 or EC50 that approximates it; ≥ and ≤ were set here for values at or beyond the usual limits of such assays; details: source organism: dengue virus type 3
HLA-A*68:01 = test: IEDB peptide-MHC binding, purified MHC/competitive/radioactivity; filed as Kd, often an IC50 or EC50 that approximates it; ≥ and ≤ were set here for values at or beyond the usual limits of such assays; details: source organism: Dengue virus 2 Jamaica/1409/1983
[11] = source organism: Dengue virus 2 Jamaica/1409/1983
[12] = source organism: Sudan ebolavirus
[13] = source organism: Dengue virus 3 Sri Lanka/1266/2000
[14] = source organism: Dengue virus 3 Martinique/1243/1999
[15] = source organism: Dengue virus 3 China/80-2/1980
[16] = source organism: Dengue virus 3 Singapore/8120/1995
[17] = source organism: Influenza A virus (A/Viet Nam/HN/2004(H5N1))
[18] = source organism: Dengue virus 4 Philippines/H241/1956
[19] = source organism: Dengue virus 2 Thailand/NGS-C/1944
[20] = source organism: Dengue virus 4 Dominica/814669/1981
[21] = source organism: Dengue virus 1 Singapore/S275/1990
[22] = source organism: Dengue virus 1 Brazil/97-11/1997
[23] = source organism: Bacillus cereus G9241
[24] = source organism: Escherichia coli 536
[25] = source organism: Influenza A virus (A/Memphis/1/1978(H1N1))
[26] = source organism: human gammaherpesvirus 4
[27] = source organism: Coxiella burnetii
[28] = source organism: Yersinia pestis FV-1
[29] = source organism: Yersinia pestis
[30] = source organism: West Nile virus

Sequence: AAAWYLWEV
Kd (HLA-A*02:17; [11]): 1420 nM | Kd (HLA-A*02:06; [11]): 3.38 nM

Sequence: AIDFLLRRW
IC50 (HLA-A*02:01 [1]): 55200 nM | IC50 (HLA-A*24:02): 38700 nM | IC50 (HLA-A*11:01 [2]; [12]): ≥ 156000 nM

Sequence: ALFSGVSWV
Kd (HLA-A*02:17; [13]): 452 nM | Kd (HLA-A*02:03; [14]): 0.36 nM | Kd (HLA-A*02:06; [14]): 1.97 nM

Sequence: ALFSGVSWVM
Kd (HLA-A*02:17; [13]): 686 nM | Kd (HLA-A*02:01 [3]; [13]): 7.22 nM

Sequence: FGGFSTLDK
IC50 (HLA-A*11:01 [2]; source organism: Variola virus): ≥ 77700 nM

Kd (HLA-B*57:01; source organism: Homo sapiens): ≥ 20000 nM | Kd (HLA-A*26:01; source organism: Homo sapiens): ≥ 20000 nM | Kd (HLA-A*69:01; source organism: Homo sapiens): ≥ 20000 nM | Kd (HLA-B*27:03; source organism: Homo sapiens): ≥ 20000 nM | Kd (HLA-B*51:01; source organism: Homo sapiens): ≥ 20000 nM | Kd (HLA-B*39:01; source organism: Homo sapiens): ≥ 20000 nM | Kd (HLA-B*18:01; source organism: Homo sapiens): ≥ 20000 nM | Kd (HLA-B*15:01): ≥ 20000 nM | Kd (HLA-B*15:17; source organism: Homo sapiens): ≥ 20000 nM | Kd (HLA-B*46:01; source organism: Homo sapiens): ≥ 20000 nM | Kd (HLA-A*02:01 [4]): 9.9 nM
Sequence: FMDPGIFPR

Sequence: FVGKTVWFV
Kd (HLA-A*02:17; [15]): 28.7 nM | Kd (HLA-A*02:06; [16]): 8.76 nM | Kd (HLA-A*02:01 [3]; [15]): 4.65 nM | Kd (HLA-A*68:02; [16]): 1.85 nM

Sequence: GEELPTVVL
Kd (HLA-B*15:09): ≥ 20000 nM

Sequence: GMLWMADVPL
Kd (HLA-A*02:17; [15]): 65.3 nM | Kd (HLA-B*08:01 [5]; [16]): 1420 nM | Kd (HLA-A*02:01 [3]; [15]): 4.89 nM

Sequence: GTFGPVHFR
Kd (HLA-A*31:01; source organism: Influenza A virus H3N2): ≤ 1 nM | Kd (HLA-A*03:01 [6]; [17]): 26 nM | Kd (HLA-A*11:01 [7]; [17]): 1.6 nM

Sequence: HLKRRKEPL
Kd (HLA-B*08:01 [8]): 16 nM | Kd (HLA-B*08:02; source organism: Listeria monocytogenes serotype 4b str. H7858): 456 nM

Sequence: ILGAQALPV
Kd (HLA-A*02:17; [18]): 2550 nM | Kd (HLA-A*02:01 [3]; [18]): 32.7 nM

Sequence: ISKSMRDQR
IC50 (HLA-A*11:01 [2]; source organism: Variola virus): 23300 nM

Sequence: LILGAQALPV
Kd (HLA-A*02:17; [18]): 482 nM | Kd (HLA-A*02:06; [18]): 18.3 nM | Kd (HLA-A*02:01 [3]; [18]): 54.4 nM

Sequence: LMMTTIGIV
Kd (HLA-A*02:17; [19]): 183 nM | Kd (HLA-A*02:03; source organism: Dengue virus 2 Peru/IQT2913/1996): 0.9 nM | Kd (HLA-A*02:01 [3]; [19]): 5.88 nM

Sequence: LQMEDKAWLV
Kd (HLA-A*02:17; [11]): 119 nM | Kd (HLA-A*02:06; [11]): 2.72 nM | Kd (HLA-A*02:01 [3]; [11]): 3.64 nM

Sequence: LSMGLITIAV
Kd (HLA-A*02:17; [20]): 2410 nM | Kd (HLA-A*02:06; [20]): 30.5 nM | Kd (HLA-A*02:01 [3]; [20]): 79.6 nM | Kd (HLA-A*68:02; [20]): 78.7 nM

Sequence: LVISGVFPV
Kd (HLA-A*02:17; [11]): 1.96 nM | Kd (HLA-A*02:03; [11]): 14.1 nM | Kd (HLA-A*02:06; [11]): 1.65 nM | Kd (HLA-A*02:01 [3]; [11]): 29.3 nM | Kd (HLA-A*68:02; [11]): 0.37 nM

Sequence: LVMAFIAFL
Kd (HLA-A*02:17; [21]): 15.4 nM | Kd (HLA-A*02:06; [22]): 14.3 nM | Kd (HLA-A*02:01 [3]; [21]): 40.1 nM | Kd (HLA-A*68:02; [22]): 21 nM

Sequence: MLLMLLPTAL
Kd (HLA-A*02:17; [21]): 78 nM | Kd (HLA-A*02:06; [22]): 5.36 nM | Kd (HLA-A*02:01 [3]; [21]): 16.6 nM

Sequence: MLYDRINLR
Kd (HLA-A*03:01 [9]; [23]): 10.7 nM | Kd (HLA-A*31:01; [23]): 3.4 nM

Kd (HLA-B*57:01; [24]): ≥ 20000 nM | Kd (HLA-A*26:01; [24]): ≥ 20000 nM | Kd (HLA-A*69:01; [24]): ≥ 20000 nM | Kd (HLA-A*02:01 [10]): ≥ 20000 nM | Kd (HLA-B*27:03; [24]): ≥ 20000 nM | Kd (HLA-B*51:01; [24]): ≥ 20000 nM | Kd (HLA-B*39:01; [24]): ≥ 20000 nM | Kd (HLA-B*18:01; [24]): ≥ 20000 nM | Kd (HLA-B*15:17; [24]): ≥ 20000 nM | Kd (HLA-B*46:01; [24]): ≥ 20000 nM
Sequence: RAMDVYCHR

Sequence: RLFKHGLKR
Kd (HLA-A*03:01 [9]; [25]): 7.9 nM | Kd (HLA-A*31:01; [25]): 14.5 nM

Sequence: SATKRWGFR
IC50 (HLA-A*11:01 [2]; [12]): ≥ 119000 nM

Sequence: SIILEFFLMV
Kd (HLA-A*02:17; [18]): 118 nM | Kd (HLA-A*02:06; [22]): 15.7 nM | Kd (HLA-A*02:01 [3]; [18]): 9.85 nM

Sequence: SQAAFGLPI
Kd (HLA-B*15:42; [26]): ≥ 5000 nM | Kd (HLA-B*83:01): ≥ 5000 nM | Kd (HLA-B*45:06; [26]): 600 nM

Sequence: SQIRRFNLR
Kd (HLA-A*31:01; source organism: Pseudomonas putida F1): 1.02 nM | Kd (HLA-A*03:01 [6]; [27]): 1230 nM | Kd (HLA-A*11:01 [7]; [27]): 13.6 nM

Sequence: SVQWFRLPR
Kd (HLA-B*15:42; [28]): ≥ 5000 nM | Kd (HLA-A*31:01; [28]): ≤ 0.1 nM | Kd (HLA-B*45:06; [28]): ≥ 5000 nM | Kd (HLA-A*03:01 [6]; [29]): 582 nM | Kd (HLA-A*11:01 [7]; [29]): ≤ 1 nM

Sequence: TLKRRSWPL
Kd (HLA-A*02:12): 4 nM | Kd (HLA-B*08:02; source organism: dengue virus type 3): 88 nM | Kd (HLA-B*08:01 [5]; [14]): 1.18 nM

Sequence: TTPMMIQTR
IC50 (HLA-A*11:01 [2]; source organism: Vaccinia virus): 46100 nM

Sequence: TVNPIVTEK
Kd (HLA-A*31:01; source organism: dengue virus type 2): 14500 nM | Kd (HLA-A*11:01 [7]; source organism: Dengue virus): 2.3 nM | Kd (HLA-A*68:01): 26.5 nM

Sequence: VLRKRWTAK
Kd (HLA-A*31:01; [30]): 58.6 nM | Kd (HLA-A*11:01 [7]; [30]): ≥ 20000 nM
